# Reference: patent US8569242B2, “Method of treating degenerative disorders of the nervous system” (The Regents of the University of California, priority 2005, dated 2013)
# Entries after “also recorded” stand apart in the source; their conditions may differ.
# Legend:
# blood coagulation = test: Hematological analyses: plasma clotting time and prothrombin time after intranasal peptide; format: in vivo, mouse; conditions: 30 μg and 90 μg intranasally daily for seven days
# Method: (§1) Hematological Analyses. Citrated plasma was prepared from mice administered intranasally 30 μg or 90 μg of γ^377-395 peptide or saline control daily for seven days. Plasma clotting times were measured by combining 10 μl of citrated plasma with 10 μl of 2 U/ml bovine thrombin (Enzyme Research Laboratories, South Bend, Ind., USA) and 40 mM. CaCl2 in a weigh boatfloating in a 37° C. water bath. Time to clot was determined by mixing with a toothpick. Plasma thrombin times were established as described previously (15). Fibrin polymerization was evaluated by standard turbidity assays using plasma. Briefly, citrate plasma (diluted tenfold in 20 mM HEPES, pH 7.4, containing 0.15 M NaCl and 5 mM-amino caproic acid) was combined with bovine thrombin (final concentration 0.2 U/ml; Enzyme Research Laboratories, South Bend, Ind., USA), and Ca^2+ (10 mM), and OD350 measurements were taken every 30 seconds.
# fibrin = target: T1, fibrin (Mus musculus, UniProt E9PV24+Q8K0E8+Q8VCM7); test: In vitro fibrin polymerization turbidity assay in plasma; format: biochemical; conditions: citrate plasma, bovine thrombin 0.2 U/ml, OD350
# T1 construct: from tissue; host or cells: citrated mouse plasma, diluted tenfold
# T1 sequence (Q8VCM7 26-436): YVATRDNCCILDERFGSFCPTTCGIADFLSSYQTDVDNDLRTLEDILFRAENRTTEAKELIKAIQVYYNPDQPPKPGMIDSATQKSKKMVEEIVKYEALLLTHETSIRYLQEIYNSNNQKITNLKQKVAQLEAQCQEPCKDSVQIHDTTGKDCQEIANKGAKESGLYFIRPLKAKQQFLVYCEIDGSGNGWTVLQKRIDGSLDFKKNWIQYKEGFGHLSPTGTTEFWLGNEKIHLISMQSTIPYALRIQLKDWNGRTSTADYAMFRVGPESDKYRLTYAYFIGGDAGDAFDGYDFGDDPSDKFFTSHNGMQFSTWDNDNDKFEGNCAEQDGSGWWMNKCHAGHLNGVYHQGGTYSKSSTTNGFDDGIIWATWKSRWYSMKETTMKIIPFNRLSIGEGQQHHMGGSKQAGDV
# T1 sequence (E9PV24 37-789 limits assumed): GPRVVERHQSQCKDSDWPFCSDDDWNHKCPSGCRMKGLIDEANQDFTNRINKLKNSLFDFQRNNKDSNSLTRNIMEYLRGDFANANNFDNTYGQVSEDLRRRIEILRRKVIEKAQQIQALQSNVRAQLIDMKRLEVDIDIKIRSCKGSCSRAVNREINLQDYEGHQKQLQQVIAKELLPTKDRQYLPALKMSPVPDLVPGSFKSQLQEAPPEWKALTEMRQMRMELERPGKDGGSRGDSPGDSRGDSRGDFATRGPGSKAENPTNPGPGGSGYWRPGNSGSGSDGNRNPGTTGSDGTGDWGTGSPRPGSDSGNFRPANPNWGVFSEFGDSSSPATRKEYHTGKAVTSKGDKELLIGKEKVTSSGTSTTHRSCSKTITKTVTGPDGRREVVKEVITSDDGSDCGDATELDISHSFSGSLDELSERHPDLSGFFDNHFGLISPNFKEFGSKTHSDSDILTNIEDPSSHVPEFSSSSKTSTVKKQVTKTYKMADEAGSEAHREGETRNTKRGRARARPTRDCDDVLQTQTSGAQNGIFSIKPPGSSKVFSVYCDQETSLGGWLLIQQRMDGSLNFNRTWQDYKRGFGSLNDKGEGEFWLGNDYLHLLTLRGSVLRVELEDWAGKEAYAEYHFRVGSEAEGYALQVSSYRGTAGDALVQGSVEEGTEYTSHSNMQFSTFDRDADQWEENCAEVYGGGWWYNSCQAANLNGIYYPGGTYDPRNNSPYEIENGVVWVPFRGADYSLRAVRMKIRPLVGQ
# T1 sequence (Q8K0E8 35-481 limits assumed): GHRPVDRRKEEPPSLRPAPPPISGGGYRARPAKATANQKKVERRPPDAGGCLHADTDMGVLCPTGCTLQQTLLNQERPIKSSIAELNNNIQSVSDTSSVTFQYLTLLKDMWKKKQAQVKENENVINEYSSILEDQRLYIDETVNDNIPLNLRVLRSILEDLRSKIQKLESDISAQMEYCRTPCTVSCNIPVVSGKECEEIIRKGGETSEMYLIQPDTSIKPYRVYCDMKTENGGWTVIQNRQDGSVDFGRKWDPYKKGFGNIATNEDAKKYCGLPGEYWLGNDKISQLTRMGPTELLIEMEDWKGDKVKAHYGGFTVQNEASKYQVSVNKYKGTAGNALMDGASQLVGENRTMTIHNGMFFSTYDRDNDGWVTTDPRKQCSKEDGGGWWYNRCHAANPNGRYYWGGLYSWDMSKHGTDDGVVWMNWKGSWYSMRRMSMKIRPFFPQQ
# Method: as §1
substance,measurement,setting,value
tyr-ser-met-lys-lys-thr-thr-met-lys-ile-ile-pro-phe-asn-arg-leu-thr-ile-gly (YSMKKTTMKIIPFNRLTIG) (listed as Homo sapiens) [γ^377-395 peptide],in vivo blood clotting time,blood coagulation,does not affect; also recorded: Neither dose affected
same,prothrombin time,blood coagulation,does not affect; also recorded: Neither dose affected
same,effect on fibrin polymerization,fibrin,did not alter; also recorded: had no effect
